The values that follow come from publication PMC6421407, “Activation of GCN2 by the ribosomal P-stalk” (Proceedings of the National Academy of Sciences of the …, 2019).

The target of series [1] is human general control nonderepressible 2 (GCN2), full-length, StrepII-tagged (human) (UniProt Q9P2K8).
Series [2] concerns the molecule itself. The series can be described thus: SEC-MALS; purified GCN2 in solution; 392 kDa measured against 384 kDa theoretical for a homodimer. In general terms: SEC sorts molecules by how far they enter the pores of the column.

In series [1], “ribosomes purified from rabbit reticulocyte lysate (from UniProt G1SPK4 1-318; P19943 1-44; G1TT27 1-257) (complex)” returned an EC50 of stimulation of eIF2α phosphorylation by GCN2, titration of ribosomes of 25 nM and a fold stimulation of eIF2α phosphorylation by GCN2, titration of ribosomes of 20 fold.

B1: human general control nonderepressible 2 (GCN2), full-length, StrepII-tagged (enzyme, UniProt Q9P2K8 1-1649, looked up)
chain: MAGGRGAPGRGRDEPPESYPQRQDHELQALEAIYGADFQDLRPDACGPVKEPPEINLVLYPQGLTGEEVYVKVDLRVKCPPTYPDVVPEIELKNAKGLSNESVNLLKSRLEELAKKHCGEVMIFELAYHVQSFLSEHNKPPPKSFHEEMLERRAQEEQQRLLEAKRKEEQEQREILHEIQRRKEEIKEEKKRKEMAKQERLEIASLSNQDHTSKKDPGGHRTAAILHGGSPDFVGNGKHRANSSGRSRRERQYSVCNSEDSPGSCEILYFNMGSPDQLMVHKGKCIGSDEQLGKLVYNALETATGGFVLLYEWVLQWQKKMGPFLTSQEKEKIDKCKKQIQGTETEFNSLVKLSHPNVVRYLAMNLKEQDDSIVVDILVEHISGVSLAAHLSHSGPIPVHQLRRYTAQLLSGLDYLHSNSVVHKVLSASNVLVDAEGTVKITDYSISKRLADICKEDVFEQTRVRFSDNALPYKTGKKGDVWRLGLLLLSLSQGQECGEYPVTIPSDLPADFQDFLKKCVCLDDKERWSPQQLLKHSFINPQPKMPLVEQSPEDSEGQDYVETVIPSNRLPSAAFFSETQRQFSRYFIEFEELQLLGKGAFGAVIKVQNKLDGCCYAVKRIPINPASRQFRRIKGEVTLLSRLHHENIVRYYNAWIERHERPAGPGTPPPDSGPLAKDDRAARGQPASDTDGLDSVEAAAPPPILSSSVEWSTSGERSASARFPATGPGSSDDEDDDEDEHGGVFSQSFLPASDSESDIIFDNEDENSKSQNQDEDCNEKNGCHESEPSVTTEAVHYLYIQMEYCEKSTLRDTIDQGLYRDTVRLWRLFREILDGLAYIHEKGMIHRDLKPVNIFLDSDDHVKIGDFGLATDHLAFSADSKQDDQTGDLIKSDPSGHLTGMVGTALYVSPEVQGSTKSAYNQKVDLFSLGIIFFEMSYHPMVTASERIFVLNQLRDPTSPKFPEDFDDGEHAKQKSVISWLLNHDPAKRPTATELLKSELLPPPQMEESELHEVLHHTLTNVDGKAYRTMMAQIFSQRISPAIDYTYDSDILKGNFSIRTAKMQQHVCETIIRIFKRHGAVQLCTPLLLPRNRQIYEHNEAALFMDHSGMLVMLPFDLRIPFARYVARNNILNLKRYCIERVFRPRKLDRFHPKELLECAFDIVTSTTNSFLPTAEIIYTIYEIIQEFPALQERNYSIYLNHTMLLKAILLHCGIPEDKLSQVYIILYDAVTEKLTRREVEAKFCNLSLSSNSLCRLYKFIEQKGDLQDLMPTINSLIKQKTGIAQLVKYGLKDLEEVVGLLKKLGIKLQVLINLGLVYKVQQHNGIIFQFVAFIKRRQRAVPEILAAGGRYDLLIPQFRGPQALGPVPTAIGVSIAIDKISAAVLNMEESVTISSCDLLVVSVGQMSMSRAINLTQKLWTAGITAEIMYDWSQSQEELQEYCRHHEITYVALVSDKEGSHVKVKSFEKERQTEKRVLETELVDHVLQKLRTKVTDERNGREASDNLAVQNLKGSFSNASGLFEIHGATVVPIVSVLAPEKLSASTRRRYETQVQTRLQTSLANLHQKSSEIEILAVDLPKETILQFLSLEWDADEQAFNTTVKQLLSRLPKQRYLKLVCDEIYNIKVEKKVSVLFLYSYRDDYYRILF
notes: General control nonderepressible 2 (GCN2), human, full length; Homodimer by SEC-MALS (392 kDa measured, 384 kDa theoretical); also called construct A; full-length GCN2
B1: the “stoichiometry N” value in series [2] was determined as 2.

In general, stoichiometry N refers to the number of molecules, sites or subunits per partner or assembly.
